Data reported in patent US20150291952.
pKd: −log10 of the molar value.

Molecular target: CHK2 (UniProt O96017)
Assay: EMSA
Settings: SEQ:22 is the DNA template strand, RNA is its reverse complement

Sequence of CHK2 (O96017 whole entry): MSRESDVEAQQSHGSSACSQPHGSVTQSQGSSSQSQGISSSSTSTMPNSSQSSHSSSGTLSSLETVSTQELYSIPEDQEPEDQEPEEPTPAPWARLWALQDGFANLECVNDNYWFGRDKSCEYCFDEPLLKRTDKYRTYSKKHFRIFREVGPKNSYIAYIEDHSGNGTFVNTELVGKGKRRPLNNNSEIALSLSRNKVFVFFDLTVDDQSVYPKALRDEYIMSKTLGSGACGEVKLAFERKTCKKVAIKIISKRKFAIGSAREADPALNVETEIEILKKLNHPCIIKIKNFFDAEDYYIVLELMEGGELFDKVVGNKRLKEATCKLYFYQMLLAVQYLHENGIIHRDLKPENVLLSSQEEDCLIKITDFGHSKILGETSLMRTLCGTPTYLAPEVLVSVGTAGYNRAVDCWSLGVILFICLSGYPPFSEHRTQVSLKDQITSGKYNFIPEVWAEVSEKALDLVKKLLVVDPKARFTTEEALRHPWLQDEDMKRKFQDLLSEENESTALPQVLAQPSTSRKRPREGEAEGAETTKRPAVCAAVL

AAGCUUCGUCAAGUCUGCAGUGAANNNNNNNNNNNNNNNNNNNNNNNNNNNNNNNNNNNNNNNNNNNNNNNNNNNNNNNNNNNNNNNNNNNNNNGAAUUCGUAGAUGUGGAUCCAUUCCC [CHK2 RAPID Cycle 4 pool]
pKd (bulk pool, 72% bound at highest protein): 6.68

AAGCUUCGUCAAGUCUGCAGUGAANNNNNNNNNNNNNNNNNNNNNNNNNNNNNNNNNNNNNNNNNNNNNNNNNNNNNNNNNNNNNNNNNNNNNNGAAUUCGUAGAUGUGGAUCCAUUCCC [CHK2 SELEX Cycle 6 pool]
pKd (bulk pool, 86% bound, FP Kd 1.6-fold higher (FIG. 8)): 6.55

AAGCUUCGUCAAGUCUGCAGUGAANNNNNNNNNNNNNNNNNNNNNNNNNNNNNNNNNNNNNNNNNNNNNNNNNNNNNNNNNNNNNNNNNNNNNNGAAUUCGUAGAUGUGGAUCCAUUCCC [CHK2 RAPID Cycle 6 pool]
pKd (bulk pool, 87% bound at highest protein): 6.72

AAGCUUCGUCAAGUCUGCAGUGAANNNNNNNNNNNNNNNNNNNNNNNNNNNNNNNNNNNNNNNNNNNNNNNNNNNNNNNNNNNNNNNNNNNNNNGAAUUCGUAGAUGUGGAUCCAUUCCC [N70 starting RNA library]
pKd (starting library, 59% bound at highest protein): < 6.00

AAGCUUCGUCAAGUCUGCAGUGAANNNNNNNNNNNNNNNNNNNNNNNNNNNNNNNNNNNNNNNNNNNNNNNNNNNNNNNNNNNNNNNNNNNNNNGAAUUCGUAGAUGUGGAUCCAUUCCC [CHK2 SELEX Cycle 3 pool]
pKd (bulk pool, 69% bound, FP Kd 1.6-fold higher (FIG. 8)): 6.50

AAGCUUCGUCAAGUCUGCAGUGAANNNNNNNNNNNNNNNNNNNNNNNNNNNNNNNNNNNNNNNNNNNNNNNNNNNNNNNNNNNNNNNNNNNNNNGAAUUCGUAGAUGUGGAUCCAUUCCC [CHK2 RAPID Cycle 2 pool]
pKd (bulk pool, 65% bound at highest protein): 6.41
